For data set [1], the target named is T1, p53 (wild-type recombinant, p53r) (UniProt P04637 1-393). As to the kind of experiment: EMSA; 200 ng p53, 20 fmol probe; shift blocked by anti-p53 pab421 or DO1; 1X binding buffer (Promega), 100 ng poly(dI-dC), 10 mM DTT, 1 mg/ml BSA, 4 °C, 30 min; 5% native PAGE at 4 °C; salt and pH not stated. As to conditions: protein: commercial; chain copies: 4; label: 5' biotin; blunt. A general note: A gel shift assay detects complexes by their altered migration in electrophoresis.
T1 sequence (P04637 whole entry): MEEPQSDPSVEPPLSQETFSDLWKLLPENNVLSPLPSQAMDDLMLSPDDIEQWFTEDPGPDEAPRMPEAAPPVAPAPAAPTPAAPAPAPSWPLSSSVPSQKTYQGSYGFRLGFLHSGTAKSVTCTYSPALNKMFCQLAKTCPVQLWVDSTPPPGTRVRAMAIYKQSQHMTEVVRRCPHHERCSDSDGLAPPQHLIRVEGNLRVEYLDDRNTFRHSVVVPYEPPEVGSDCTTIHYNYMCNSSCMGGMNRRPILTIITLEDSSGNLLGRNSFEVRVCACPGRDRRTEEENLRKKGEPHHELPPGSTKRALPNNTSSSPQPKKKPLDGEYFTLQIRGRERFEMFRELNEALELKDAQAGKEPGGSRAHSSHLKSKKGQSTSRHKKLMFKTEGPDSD

The target in data set [2] is T1, p53 (wild-type recombinant, p53r). Nature of the data set: competition EMSA; 4 pmol cold competitor (200-fold excess) blocks shift of N1; 1X binding buffer (Promega), 100 ng poly(dI-dC), 10 mM DTT, 1 mg/ml BSA, 4 °C, 30 min; 5% native PAGE at 4 °C; salt and pH not stated. As to conditions: protein: commercial; chain copies: 4; blunt.

This note sets out measurements from paper PMC4736712, “Direct α-synuclein promoter transactivation by the tumor suppressor p53”.

B1: alpha-syn promoter probe (p53 half-site) (dsDNA)
DNA 1: CCTTTCGCTGGAGACATGCCCTTCCATCCTGTCAAAGCCC
DNA 2: GGGCTTTGACAGGATGGAAGGGCATGTCTCCAGCGAAAGG
Turning to B1, the binding result in data set [1] is given as “binds”.

B2: unlabeled specific competitor (comp-sp) (dsDNA)
DNA 1: B1 DNA 1
DNA 2: B1 DNA 2
For the molecule B2, in data set [2], the binding result was “binds”.
